# Test results published in the supplement of paper PMC9112550, “Optimization of the antimicrobial peptide Bac7 by deep mutational scanning” (BMC Biology, 2022).
# Test system: Escherichia coli TOP10
# Assay: shrunken log2 fold change of peptide-encoding DNA abundance (4.5 h post-induction vs induction); higher = less antimicrobial activity (less host growth inhibition)
# Conditions: time post-induction: 4.5 h; library: site-saturation at positions 5, 18, 19, 20
# 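Further: peptides expressed intracellularly from a pBAD plasmid library in pooled LB shake-flask culture, induced with 0.3% L-arabinose, DNA abundance read by NGS, three biological replicates, DESeq2 with apeglm shrinkage.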
row,Sequence,shrunken log2 fold change
1,RRIRWRPPRLPRPRPRPKHWPRP,0.4
2,RRIRRRPPRLPRPRPRPAKLPRP,0.0542
3,RRIRVRPPRLPRPRPRPLHTPRP,-0.0261
4,RRIRDRPPRLPRPRPRPQKHPRP,-0.108
5,RRIRPRPPRLPRPRPRPTEKPRP,0.0615
6,RRIRQRPPRLPRPRPRPQTSPRP,0.219
7,RRIRARPPRLPRPRPRPHCPPRP,-0.0475
8,RRIRQRPPRLPRPRPRPQGKPRP,-0.0747
9,RRIRRRPPRLPRPRPRPGEHPRP,0.291
10,RRIRERPPRLPRPRPRPYPIPRP,0.113
11,RRIRARPPRLPRPRPRPKALPRP,0.294
12,RRIRDRPPRLPRPRPRPSGRPRP,0.124
13,RRIRQRPPRLPRPRPRPTQAPRP,0.186
14,RRIRHRPPRLPRPRPRPEWNPRP,-0.294
15,RRIRMRPPRLPRPRPRPNTSPRP,-0.0142
16,RRIRCRPPRLPRPRPRPQCFPRP,-0.187
17,RRIRDRPPRLPRPRPRPYSGPRP,-0.035
18,RRIRARPPRLPRPRPRPQVFPRP,0.278
19,RRIRTRPPRLPRPRPRPRPIPRP,-0.138
20,RRIRVRPPRLPRPRPRPLIMPRP,-0.502
21,RRIRIRPPRLPRPRPRPWNAPRP,0.0267
22,RRIRTRPPRLPRPRPRPQFTPRP,-0.0397
23,RRIRRRPPRLPRPRPRPLIFPRP,-0.00389
24,RRIRIRPPRLPRPRPRPVIRPRP,0.00816
25,RRIRQRPPRLPRPRPRPAMFPRP,0.0399

row,Sequence,shrunken log2 fold change
1,RRIRGRPPRLPRPRPRPCPPPRP,0.284
2,RRIRKRPPRLPRPRPRPQLYPRP,0.0948
3,RRIRKRPPRLPRPRPRPNHVPRP,0.0656
4,RRIRIRPPRLPRPRPRPKKHPRP,-0.21
5,RRIRHRPPRLPRPRPRPEMMPRP,-0.0229
6,RRIRGRPPRLPRPRPRPPWSPRP,0.76
7,RRIRTRPPRLPRPRPRPCMKPRP,-0.332
8,RRIRFRPPRLPRPRPRPCTCPRP,-0.187
9,RRIRQRPPRLPRPRPRPKTRPRP,0.247
10,RRIRPRPPRLPRPRPRPQHCPRP,-0.0861
11,RRIRGRPPRLPRPRPRPAEGPRP,0.335
12,RRIRIRPPRLPRPRPRPPRGPRP,0.534
13,RRIRIRPPRLPRPRPRPHMHPRP,-1.05
14,RRIRGRPPRLPRPRPRPQELPRP,0.27
15,RRIRNRPPRLPRPRPRPSRCPRP,0.283
16,RRIRYRPPRLPRPRPRPTIRPRP,-0.336
17,RRIRFRPPRLPRPRPRPWMTPRP,0.0687
18,RRIRDRPPRLPRPRPRPLRAPRP,1.15
19,RRIRHRPPRLPRPRPRPKPWPRP,0.528
20,RRIRRRPPRLPRPRPRPFHQPRP,-0.191
21,RRIRHRPPRLPRPRPRPQWLPRP,0.134
22,RRIRCRPPRLPRPRPRPYGYPRP,-0.0837
23,RRIRIRPPRLPRPRPRPCLQPRP,-0.0932
24,RRIRQRPPRLPRPRPRPEGKPRP,0.0352
25,RRIRDRPPRLPRPRPRPKNMPRP,-0.482

row,Sequence,shrunken log2 fold change
1,RRIRFRPPRLPRPRPRPTMLPRP,-0.423
2,RRIRFRPPRLPRPRPRPLMCPRP,-0.328
3,RRIRPRPPRLPRPRPRPMCNPRP,-0.075
4,RRIRWRPPRLPRPRPRPCHAPRP,-0.253
5,RRIRERPPRLPRPRPRPVQPPRP,0.336
6,RRIRTRPPRLPRPRPRPNKMPRP,0.0425
7,RRIRKRPPRLPRPRPRPDGRPRP,0.0261
8,RRIRVRPPRLPRPRPRPFIWPRP,-0.0481
9,RRIRHRPPRLPRPRPRPSNEPRP,-0.271
10,RRIRGRPPRLPRPRPRPMIRPRP,0.147
11,RRIRCRPPRLPRPRPRPPENPRP,0.2
12,RRIRDRPPRLPRPRPRPHMRPRP,0.00207
13,RRIRMRPPRLPRPRPRPENSPRP,2.07
14,RRIRDRPPRLPRPRPRPEHFPRP,-0.138
15,RRIRYRPPRLPRPRPRPQCTPRP,-0.292
16,RRIRVRPPRLPRPRPRPTMHPRP,-0.103
17,RRIRKRPPRLPRPRPRPHIAPRP,-0.415
18,RRIRWRPPRLPRPRPRPNSRPRP,0.0524
19,RRIRDRPPRLPRPRPRPCHYPRP,-0.639
20,RRIRERPPRLPRPRPRPPRSPRP,0.375
21,RRIRPRPPRLPRPRPRPCRQPRP,0.111
22,RRIRSRPPRLPRPRPRPFYHPRP,-0.28
23,RRIRIRPPRLPRPRPRPVNWPRP,-0.229
24,RRIRRRPPRLPRPRPRPHGPPRP,0.267
25,RRIRSRPPRLPRPRPRPRGCPRP,0.383

row,Sequence,shrunken log2 fold change
1,RRIRRRPPRLPRPRPRPYKEPRP,-0.463
2,RRIRMRPPRLPRPRPRPAHNPRP,0.421
3,RRIRHRPPRLPRPRPRPCQNPRP,-0.0608
4,RRIRTRPPRLPRPRPRPSDLPRP,-0.0743
5,RRIRTRPPRLPRPRPRPLNPPRP,-0.19
6,RRIRVRPPRLPRPRPRPWCHPRP,-0.291
7,RRIRIRPPRLPRPRPRPWSHPRP,-0.416
8,RRIRCRPPRLPRPRPRPDYKPRP,-0.375
9,RRIRQRPPRLPRPRPRPIMVPRP,-0.0523
10,RRIRHRPPRLPRPRPRPICFPRP,-0.114
11,RRIRERPPRLPRPRPRPWHDPRP,-0.251
12,RRIRARPPRLPRPRPRPNHEPRP,0.021
13,RRIRSRPPRLPRPRPRPKHVPRP,-0.183
14,RRIRSRPPRLPRPRPRPQDQPRP,-0.0695
15,RRIRLRPPRLPRPRPRPWNDPRP,0.041
16,RRIRGRPPRLPRPRPRPCPSPRP,0.0189
17,RRIRKRPPRLPRPRPRPKVRPRP,0.131
18,RRIRFRPPRLPRPRPRPSALPRP,0.0201
19,RRIRCRPPRLPRPRPRPYNEPRP,-0.51
20,RRIRVRPPRLPRPRPRPQNQPRP,-0.388
21,RRIRMRPPRLPRPRPRPCMPPRP,-0.106
22,RRIRWRPPRLPRPRPRPIWFPRP,1.96
23,RRIRHRPPRLPRPRPRPETSPRP,0.0165
24,RRIRRRPPRLPRPRPRPHLKPRP,-0.0915
25,RRIRHRPPRLPRPRPRPTHMPRP,-0.065

row,Sequence,shrunken log2 fold change
1,RRIRVRPPRLPRPRPRPGIWPRP,0.339
2,RRIRMRPPRLPRPRPRPVSRPRP,0.796
3,RRIRKRPPRLPRPRPRPCWYPRP,-0.139
4,RRIRGRPPRLPRPRPRPHEGPRP,0.403
5,RRIRQRPPRLPRPRPRPMMVPRP,-0.0145
6,RRIRMRPPRLPRPRPRPEIVPRP,0.574
7,RRIRRRPPRLPRPRPRPHYKPRP,-0.487
8,RRIRPRPPRLPRPRPRPQTFPRP,-0.495
9,RRIRMRPPRLPRPRPRPAYVPRP,-0.114
10,RRIRDRPPRLPRPRPRPIIHPRP,-0.483
11,RRIRYRPPRLPRPRPRPHQTPRP,0.0583
12,RRIRSRPPRLPRPRPRPSTDPRP,-0.168
13,RRIRCRPPRLPRPRPRPCSGPRP,-0.513
14,RRIRWRPPRLPRPRPRPYPQPRP,-0.361
15,RRIRWRPPRLPRPRPRPVLFPRP,-0.0589
16,RRIRERPPRLPRPRPRPWSMPRP,-0.707
17,RRIRCRPPRLPRPRPRPDLMPRP,-0.424
18,RRIRCRPPRLPRPRPRPACHPRP,-0.315
19,RRIRIRPPRLPRPRPRPTLNPRP,-0.181
20,RRIRGRPPRLPRPRPRPIKQPRP,-0.0183
21,RRIRWRPPRLPRPRPRPWEMPRP,-0.0156
22,RRIRIRPPRLPRPRPRPGMWPRP,0.0422
23,RRIRTRPPRLPRPRPRPIEFPRP,0.0274
24,RRIRARPPRLPRPRPRPELHPRP,0.964
25,RRIRYRPPRLPRPRPRPKNSPRP,-1.22

row,Sequence,shrunken log2 fold change
1,RRIRWRPPRLPRPRPRPVLRPRP,0.106
2,RRIRCRPPRLPRPRPRPPMFPRP,-0.121
3,RRIRRRPPRLPRPRPRPMHSPRP,0.36
4,RRIRIRPPRLPRPRPRPGFTPRP,-0.329
5,RRIRWRPPRLPRPRPRPILNPRP,-0.362
6,RRIRWRPPRLPRPRPRPGMHPRP,0.343
7,RRIRGRPPRLPRPRPRPDGVPRP,0.368
8,RRIRARPPRLPRPRPRPKMPPRP,0.114
9,RRIRWRPPRLPRPRPRPMHDPRP,0.229
10,RRIRVRPPRLPRPRPRPMIDPRP,-0.283
11,RRIRSRPPRLPRPRPRPVFMPRP,-0.236
12,RRIRHRPPRLPRPRPRPSPWPRP,0.0405
13,RRIRYRPPRLPRPRPRPYCCPRP,-0.145
14,RRIRVRPPRLPRPRPRPHFFPRP,-0.0497
15,RRIRERPPRLPRPRPRPQFNPRP,-0.167
16,RRIRSRPPRLPRPRPRPCLRPRP,-0.385
17,RRIRYRPPRLPRPRPRPGNEPRP,-0.229
18,RRIRQRPPRLPRPRPRPMNCPRP,-0.0255
19,RRIRGRPPRLPRPRPRPHGHPRP,0.382
20,RRIRFRPPRLPRPRPRPLKRPRP,-0.227
21,RRIRNRPPRLPRPRPRPMSMPRP,-0.0143
22,RRIRQRPPRLPRPRPRPHPKPRP,-0.0646
23,RRIRARPPRLPRPRPRPIIDPRP,0.216
24,RRIRKRPPRLPRPRPRPSRMPRP,0.317
25,RRIRYRPPRLPRPRPRPQASPRP,-0.0259
